Results: the supplement of paper PMC7125110
± gives the standard error. This sample holds only a part of the variants without activity.

B1: glmS ribozyme (parent)
chain: AUAAAAGCGCCAGAACUACAGAAAUGUAGUUGACGAGGAGGAGGUUUAUCGAAUUUUCGGCGGAUGCCUCCAAA

Assays:
Conditions in all cases: with glucosamine-6-phosphate
glucosamine-6-phosphate [1] = variants of: B1; experiment: self-cleavage kobs at 640 uM GlcN6P; higher = faster cleavage; RNA array
In short: (§1)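 Barcoded ribozyme variants, transcribed in situ by E. coli RNA polymerase on sequenced MiSeq chips, were followed via a hybridised Cy3 probe at 37 °C. Glucosamine-6-phosphate ranged from 40 μM to 10 mM in HEPES/KCl/Mg(OAc)2 buffer. kobs came from decay fits to per-tile medians, and kcat and KM from weighted Michaelis–Menten fits.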

glucosamine-6-phosphate [2] = variants of: B1; experiment: self-cleavage kobs at 2500 uM GlcN6P; higher = faster cleavage; RNA array
In short: as §1

glucosamine-6-phosphate [3] = variants of: B1; experiment: self-cleavage kobs at 10000 uM GlcN6P; higher = faster cleavage; RNA array
In short: as §1

Variant | self-cleavage kobs at 640 uM GlcN6P (glucosamine-6-phosphate [1]) | self-cleavage kobs at 2500 uM GlcN6P (glucosamine-6-phosphate [2]) | self-cleavage kobs at 10000 uM GlcN6P (glucosamine-6-phosphate [3])
C10U U30C G40U U55C G60A C71U | < 1e-05 s⁻¹ |  | 
A12G G21A G43U G59C C70U | < 1e-05 s⁻¹ | < 1e-05 s⁻¹ | 
C10U G37C A39G G41C A48U G62U U65A | < 1e-05 s⁻¹ | < 1e-05 s⁻¹ | 
G9U U65C | < 1e-05 s⁻¹ |  | < 1e-05 s⁻¹
C10U U46A U56C | < 1e-05 s⁻¹ | < 1e-05 s⁻¹ | 
C10U A36G C58U | < 1e-05 s⁻¹ |  | 
C11A A12C A53G U56G | 6.8e-05 ± 1.5e-05 s⁻¹ | 0.000323 ± 6.9e-05 s⁻¹ | 
G9U G13U G29U G37C | < 1e-05 s⁻¹ | < 1e-05 s⁻¹ | 
G13A A52C G63U | < 1e-05 s⁻¹ |  | 
G9U A36U G40U G60A | < 1e-05 s⁻¹ |  | 
C10G C11U U45G A48U C58U | < 1e-05 s⁻¹ | < 1e-05 s⁻¹ | 
G9A G13C A64G C70U | < 1e-05 s⁻¹ |  | 
G9U G29U C34A G41U U57G G59A | < 1e-05 s⁻¹ | < 1e-05 s⁻¹ | 
A12G G40U G41C | < 1e-05 s⁻¹ |  | 
C10U C16G U31G A33C C70G | < 1e-05 s⁻¹ |  | 
C10A G38A G51U C70G | 5.43e-05 ± 1.7e-05 s⁻¹ |  | 
C11G G29U A42C | < 1e-05 s⁻¹ | < 1e-05 s⁻¹ | 
G9U G40C C50G | < 1e-05 s⁻¹ | < 1e-05 s⁻¹ | 
G9A G13A A48G | < 1e-05 s⁻¹ | < 1e-05 s⁻¹ | 
C11A G51U A53G A64C U69A | 8.76e-05 ± 3.9e-05 s⁻¹ |  | 5.47e-05 ± 1.5e-05 s⁻¹
A12G U47A G62U C67G C68G | 0.000122 ± 3.6e-05 s⁻¹ |  | 
G9U C34G C58U | < 1e-05 s⁻¹ | < 1e-05 s⁻¹ | 

Variant | self-cleavage kobs at 640 uM GlcN6P (glucosamine-6-phosphate [1]) | self-cleavage kobs at 2500 uM GlcN6P (glucosamine-6-phosphate [2]) | self-cleavage kobs at 10000 uM GlcN6P (glucosamine-6-phosphate [3])
G9U U30G C68U | < 1e-05 s⁻¹ |  | 
C11A G59U C70G C71U | 0.000202 ± 5.2e-05 s⁻¹ | 0.00032 ± 6.5e-05 s⁻¹ | 0.00015 ± 4.4e-05 s⁻¹
C10U G32C G62U | < 1e-05 s⁻¹ | < 1e-05 s⁻¹ | 
C11A G63A C67A U69C | < 1e-05 s⁻¹ |  | 
C11U U65G C67G | 0.000877 ± 0.00023 s⁻¹ |  | 0.000136 ± 2.6e-05 s⁻¹
C11U G13C G37C | < 1e-05 s⁻¹ | < 1e-05 s⁻¹ | < 1e-05 s⁻¹
G9A C11A A39U G41A A42U C50A U57G | < 1e-05 s⁻¹ | < 1e-05 s⁻¹ | 
A12C C70G C71G | 5.18e-05 ± 2.5e-05 s⁻¹ | 4.37e-05 ± 1.9e-05 s⁻¹ | 
C11G A64U | < 1e-05 s⁻¹ | < 1e-05 s⁻¹ | 
A12C G38A A52U | < 1e-05 s⁻¹ |  | 
C10A G32C C34U | < 1e-05 s⁻¹ |  | 
G13C A14U G40U G51C A53G U54A | < 1e-05 s⁻¹ |  | 
A12C G29A C58G U65G C68G | 0.000168 ± 6e-05 s⁻¹ | 8.36e-05 ± 2.2e-05 s⁻¹ | 
G9A C11U U54A G59A A64G | < 1e-05 s⁻¹ | < 1e-05 s⁻¹ | 
G13A A39G A52C | < 1e-05 s⁻¹ |  | 
C11A G38A G43U U54G | < 1e-05 s⁻¹ |  | 
C11G U49C C68G U69C | < 1e-05 s⁻¹ |  | 
C11U A15C G29C G32U C50G | 0.000512 ± 0.00014 s⁻¹ | 0.000149 ± 3.9e-05 s⁻¹ | 
C11G A15C U30G A52U | < 1e-05 s⁻¹ |  | 
C10G C16U A52U U54C G66A | < 1e-05 s⁻¹ |  | 
C11U U31C G35C A36U | < 1e-05 s⁻¹ | < 1e-05 s⁻¹ | 
G13A G41A C50U G51U C67U | < 1e-05 s⁻¹ |  | 

Variant | self-cleavage kobs at 640 uM GlcN6P (glucosamine-6-phosphate [1]) | self-cleavage kobs at 2500 uM GlcN6P (glucosamine-6-phosphate [2]) | self-cleavage kobs at 10000 uM GlcN6P (glucosamine-6-phosphate [3])
G13A G35C G51U | < 1e-05 s⁻¹ |  | 
A12U A15C A48G A52U G66A C70G | < 1e-05 s⁻¹ |  | 
G13A A53C | 4.8e-05 ± 1.4e-05 s⁻¹ | 3.79e-05 ± 1.2e-05 s⁻¹ | 0.000139 ± 1.3e-05 s⁻¹
C11G A12U A42G | < 1e-05 s⁻¹ | < 1e-05 s⁻¹ | 
C10G A14C G44C G51C | < 1e-05 s⁻¹ |  | 
A12C A33G G37U | < 1e-05 s⁻¹ | < 1e-05 s⁻¹ | 
A12U A39G U47G U54A U69A | 9.73e-05 ± 2e-05 s⁻¹ | 8.59e-05 ± 2.7e-05 s⁻¹ | 
A12G A52G G62U | < 1e-05 s⁻¹ | < 1e-05 s⁻¹ | 
G9A U31G A52C | < 1e-05 s⁻¹ |  | 
A12C C16G A42G G44C U45G U46A C61A G62C | < 1e-05 s⁻¹ | < 1e-05 s⁻¹ | 
C10G U55A U57A | < 1e-05 s⁻¹ |  | 
C11A C16G U57A C58G A64U | < 1e-05 s⁻¹ | < 1e-05 s⁻¹ | 
C11U A15U G38U G41U U57A | < 1e-05 s⁻¹ | < 1e-05 s⁻¹ | 
C10U C11G G29U U30G G37C | < 1e-05 s⁻¹ |  | 
A12U U31G G41U | 0.00016 ± 5.9e-05 s⁻¹ | 0.000471 ± 0.00018 s⁻¹ | 
A12U U56A C58G | 0.000155 ± 2.6e-05 s⁻¹ | 0.000526 ± 9e-05 s⁻¹ | 
C11U C16U U45A | 0.000806 ± 0.00021 s⁻¹ | 0.00127 ± 0.00037 s⁻¹ | 
A12C G35C G44A C50U | < 1e-05 s⁻¹ | < 1e-05 s⁻¹ | 
C10A C58U G63A A64U | < 1e-05 s⁻¹ | < 1e-05 s⁻¹ | 
C11G U31G A39C G41C | < 1e-05 s⁻¹ | < 1e-05 s⁻¹ | 
